Article PMC8580825, “Scaffolding protein CcmM directs multiprotein phase separation in β-carboxysome biogenesis” (Nature Structural & Molecular Biology, 2021)

B1: SeM58-K62D (natural protein, Synechococcus elongatus PCC 7942, UniProt Q03513 1-539, looked up)
chain: MPSPTTVPVATAGRLAEPYIDPAAQVHAIASIIGDVRIAAGVRVAAGVSIRADEGAPFQVGDESILQEGAVIHGLEYGRVLGDDQADYSVWIGQRVAITHKALIHGPAYLGDDCFVGFRSTVFNARVGAGSVIMMHALVQDVEIPPGRYVPSGAIITTQQQADRLPEVRPEDREFARHIIGSPPVIVRSTPAATADFHSTPTPSPLRPSSSEATTVSAYNGQGRLSSEVITQVRSLLNQGYRIGTEHADKRRFRTSSWQPCAPIQSTNERQVLSELENCLSEHEGEYVRLLGIDTNTRSRVFEALIQRPDGSVPESLGSQPVAVASGGGRQSSYASVSGNLSAEVVNKVRNLLAQGYRIGTEHADKRRFRTSSWQSCAPIQSSNERQVLAELENCLSEHEGEYVRLLGIDTASRSRVFEALIQDPQGPVGSAKAAAAPVSSATPSSHSYTSNGSSSSDVAGQVRGLLAQGYRISAEVADKRRFQTSSWQSLPALSGQSEATVLPALESILQEHKGKYVRLIGIDPAARRRVAELLIQKP
notes: CcmM (M58), Synechococcus elongatus PCC 7942, point mutant in the γCAL domain; source: E. coli BL21 (DE3), purified as wild-type M58; not shown: His6-ubiquitin, N-terminal, cleaved
B2: SeM58-D112K (natural protein, Synechococcus elongatus PCC 7942, UniProt Q03513 1-539, looked up)
chain: MPSPTTVPVATAGRLAEPYIDPAAQVHAIASIIGDVRIAAGVRVAAGVSIRADEGAPFQVGKESILQEGAVIHGLEYGRVLGDDQADYSVWIGQRVAITHKALIHGPAYLGKDCFVGFRSTVFNARVGAGSVIMMHALVQDVEIPPGRYVPSGAIITTQQQADRLPEVRPEDREFARHIIGSPPVIVRSTPAATADFHSTPTPSPLRPSSSEATTVSAYNGQGRLSSEVITQVRSLLNQGYRIGTEHADKRRFRTSSWQPCAPIQSTNERQVLSELENCLSEHEGEYVRLLGIDTNTRSRVFEALIQRPDGSVPESLGSQPVAVASGGGRQSSYASVSGNLSAEVVNKVRNLLAQGYRIGTEHADKRRFRTSSWQSCAPIQSSNERQVLAELENCLSEHEGEYVRLLGIDTASRSRVFEALIQDPQGPVGSAKAAAAPVSSATPSSHSYTSNGSSSSDVAGQVRGLLAQGYRISAEVADKRRFQTSSWQSLPALSGQSEATVLPALESILQEHKGKYVRLIGIDPAARRRVAELLIQKP
notes: as for B1
B3: SeM58-E76K (natural protein, Synechococcus elongatus PCC 7942, UniProt Q03513 1-539, looked up)
chain: MPSPTTVPVATAGRLAEPYIDPAAQVHAIASIIGDVRIAAGVRVAAGVSIRADEGAPFQVGKESILQEGAVIHGLKYGRVLGDDQADYSVWIGQRVAITHKALIHGPAYLGDDCFVGFRSTVFNARVGAGSVIMMHALVQDVEIPPGRYVPSGAIITTQQQADRLPEVRPEDREFARHIIGSPPVIVRSTPAATADFHSTPTPSPLRPSSSEATTVSAYNGQGRLSSEVITQVRSLLNQGYRIGTEHADKRRFRTSSWQPCAPIQSTNERQVLSELENCLSEHEGEYVRLLGIDTNTRSRVFEALIQRPDGSVPESLGSQPVAVASGGGRQSSYASVSGNLSAEVVNKVRNLLAQGYRIGTEHADKRRFRTSSWQSCAPIQSSNERQVLAELENCLSEHEGEYVRLLGIDTASRSRVFEALIQDPQGPVGSAKAAAAPVSSATPSSHSYTSNGSSSSDVAGQVRGLLAQGYRISAEVADKRRFQTSSWQSLPALSGQSEATVLPALESILQEHKGKYVRLIGIDPAARRRVAELLIQKP
notes: as for B1
B4: SeM58-E286K (natural protein, Synechococcus elongatus PCC 7942, UniProt Q03513 1-539, looked up)
chain: MPSPTTVPVATAGRLAEPYIDPAAQVHAIASIIGDVRIAAGVRVAAGVSIRADEGAPFQVGKESILQEGAVIHGLEYGRVLGDDQADYSVWIGQRVAITHKALIHGPAYLGDDCFVGFRSTVFNARVGAGSVIMMHALVQDVEIPPGRYVPSGAIITTQQQADRLPEVRPEDREFARHIIGSPPVIVRSTPAATADFHSTPTPSPLRPSSSEATTVSAYNGQGRLSSEVITQVRSLLNQGYRIGTEHADKRRFRTSSWQPCAPIQSTNERQVLSELENCLSEHEGKYVRLLGIDTNTRSRVFEALIQRPDGSVPESLGSQPVAVASGGGRQSSYASVSGNLSAEVVNKVRNLLAQGYRIGTEHADKRRFRTSSWQSCAPIQSSNERQVLAELENCLSEHEGEYVRLLGIDTASRSRVFEALIQDPQGPVGSAKAAAAPVSSATPSSHSYTSNGSSSSDVAGQVRGLLAQGYRISAEVADKRRFQTSSWQSLPALSGQSEATVLPALESILQEHKGKYVRLIGIDPAARRRVAELLIQKP
notes: CcmM (M58), Synechococcus elongatus PCC 7942, point mutant in SSUL1; source: E. coli BL21 (DE3), purified as wild-type M58; not shown: His6-ubiquitin, N-terminal, cleaved
B5: SeM58-E246K (natural protein, Synechococcus elongatus PCC 7942, UniProt Q03513 1-539, looked up)
chain: MPSPTTVPVATAGRLAEPYIDPAAQVHAIASIIGDVRIAAGVRVAAGVSIRADEGAPFQVGKESILQEGAVIHGLEYGRVLGDDQADYSVWIGQRVAITHKALIHGPAYLGDDCFVGFRSTVFNARVGAGSVIMMHALVQDVEIPPGRYVPSGAIITTQQQADRLPEVRPEDREFARHIIGSPPVIVRSTPAATADFHSTPTPSPLRPSSSEATTVSAYNGQGRLSSEVITQVRSLLNQGYRIGTKHADKRRFRTSSWQPCAPIQSTNERQVLSELENCLSEHEGEYVRLLGIDTNTRSRVFEALIQRPDGSVPESLGSQPVAVASGGGRQSSYASVSGNLSAEVVNKVRNLLAQGYRIGTEHADKRRFRTSSWQSCAPIQSSNERQVLAELENCLSEHEGEYVRLLGIDTASRSRVFEALIQDPQGPVGSAKAAAAPVSSATPSSHSYTSNGSSSSDVAGQVRGLLAQGYRISAEVADKRRFQTSSWQSLPALSGQSEATVLPALESILQEHKGKYVRLIGIDPAARRRVAELLIQKP
notes: as for B4
B6: SeM58-R79D (natural protein, Synechococcus elongatus PCC 7942, UniProt Q03513 1-539, looked up)
chain: MPSPTTVPVATAGRLAEPYIDPAAQVHAIASIIGDVRIAAGVRVAAGVSIRADEGAPFQVGKESILQEGAVIHGLEYGDVLGDDQADYSVWIGQRVAITHKALIHGPAYLGDDCFVGFRSTVFNARVGAGSVIMMHALVQDVEIPPGRYVPSGAIITTQQQADRLPEVRPEDREFARHIIGSPPVIVRSTPAATADFHSTPTPSPLRPSSSEATTVSAYNGQGRLSSEVITQVRSLLNQGYRIGTEHADKRRFRTSSWQPCAPIQSTNERQVLSELENCLSEHEGEYVRLLGIDTNTRSRVFEALIQRPDGSVPESLGSQPVAVASGGGRQSSYASVSGNLSAEVVNKVRNLLAQGYRIGTEHADKRRFRTSSWQSCAPIQSSNERQVLAELENCLSEHEGEYVRLLGIDTASRSRVFEALIQDPQGPVGSAKAAAAPVSSATPSSHSYTSNGSSSSDVAGQVRGLLAQGYRISAEVADKRRFQTSSWQSLPALSGQSEATVLPALESILQEHKGKYVRLIGIDPAARRRVAELLIQKP
notes: as for B1
B7: SeM58-D294K (natural protein, Synechococcus elongatus PCC 7942, UniProt Q03513 1-539, looked up)
chain: MPSPTTVPVATAGRLAEPYIDPAAQVHAIASIIGDVRIAAGVRVAAGVSIRADEGAPFQVGKESILQEGAVIHGLEYGRVLGDDQADYSVWIGQRVAITHKALIHGPAYLGDDCFVGFRSTVFNARVGAGSVIMMHALVQDVEIPPGRYVPSGAIITTQQQADRLPEVRPEDREFARHIIGSPPVIVRSTPAATADFHSTPTPSPLRPSSSEATTVSAYNGQGRLSSEVITQVRSLLNQGYRIGTEHADKRRFRTSSWQPCAPIQSTNERQVLSELENCLSEHEGEYVRLLGIKTNTRSRVFEALIQRPDGSVPESLGSQPVAVASGGGRQSSYASVSGNLSAEVVNKVRNLLAQGYRIGTEHADKRRFRTSSWQSCAPIQSSNERQVLAELENCLSEHEGEYVRLLGIDTASRSRVFEALIQDPQGPVGSAKAAAAPVSSATPSSHSYTSNGSSSSDVAGQVRGLLAQGYRISAEVADKRRFQTSSWQSLPALSGQSEATVLPALESILQEHKGKYVRLIGIDPAARRRVAELLIQKP
notes: as for B4
B8: SeM58-R126D (natural protein, Synechococcus elongatus PCC 7942, UniProt Q03513 1-539, looked up)
chain: MPSPTTVPVATAGRLAEPYIDPAAQVHAIASIIGDVRIAAGVRVAAGVSIRADEGAPFQVGKESILQEGAVIHGLEYGRVLGDDQADYSVWIGQRVAITHKALIHGPAYLGDDCFVGFRSTVFNADVGAGSVIMMHALVQDVEIPPGRYVPSGAIITTQQQADRLPEVRPEDREFARHIIGSPPVIVRSTPAATADFHSTPTPSPLRPSSSEATTVSAYNGQGRLSSEVITQVRSLLNQGYRIGTEHADKRRFRTSSWQPCAPIQSTNERQVLSELENCLSEHEGEYVRLLGIDTNTRSRVFEALIQRPDGSVPESLGSQPVAVASGGGRQSSYASVSGNLSAEVVNKVRNLLAQGYRIGTEHADKRRFRTSSWQSCAPIQSSNERQVLAELENCLSEHEGEYVRLLGIDTASRSRVFEALIQDPQGPVGSAKAAAAPVSSATPSSHSYTSNGSSSSDVAGQVRGLLAQGYRISAEVADKRRFQTSSWQSLPALSGQSEATVLPALESILQEHKGKYVRLIGIDPAARRRVAELLIQKP
notes: as for B1
B9: SeM58-D249K (natural protein, Synechococcus elongatus PCC 7942, UniProt Q03513 1-539, looked up)
chain: MPSPTTVPVATAGRLAEPYIDPAAQVHAIASIIGDVRIAAGVRVAAGVSIRADEGAPFQVGKESILQEGAVIHGLEYGRVLGDDQADYSVWIGQRVAITHKALIHGPAYLGDDCFVGFRSTVFNARVGAGSVIMMHALVQDVEIPPGRYVPSGAIITTQQQADRLPEVRPEDREFARHIIGSPPVIVRSTPAATADFHSTPTPSPLRPSSSEATTVSAYNGQGRLSSEVITQVRSLLNQGYRIGTEHAKKRRFRTSSWQPCAPIQSTNERQVLSELENCLSEHEGEYVRLLGIDTNTRSRVFEALIQRPDGSVPESLGSQPVAVASGGGRQSSYASVSGNLSAEVVNKVRNLLAQGYRIGTEHADKRRFRTSSWQSCAPIQSSNERQVLAELENCLSEHEGEYVRLLGIDTASRSRVFEALIQDPQGPVGSAKAAAAPVSSATPSSHSYTSNGSSSSDVAGQVRGLLAQGYRISAEVADKRRFQTSSWQSLPALSGQSEATVLPALESILQEHKGKYVRLIGIDPAARRRVAELLIQKP
notes: as for B4
B10: SeM58-R95D (natural protein, Synechococcus elongatus PCC 7942, UniProt Q03513 1-539, looked up)
chain: MPSPTTVPVATAGRLAEPYIDPAAQVHAIASIIGDVRIAAGVRVAAGVSIRADEGAPFQVGKESILQEGAVIHGLEYGRVLGDDQADYSVWIGQDVAITHKALIHGPAYLGDDCFVGFRSTVFNARVGAGSVIMMHALVQDVEIPPGRYVPSGAIITTQQQADRLPEVRPEDREFARHIIGSPPVIVRSTPAATADFHSTPTPSPLRPSSSEATTVSAYNGQGRLSSEVITQVRSLLNQGYRIGTEHADKRRFRTSSWQPCAPIQSTNERQVLSELENCLSEHEGEYVRLLGIDTNTRSRVFEALIQRPDGSVPESLGSQPVAVASGGGRQSSYASVSGNLSAEVVNKVRNLLAQGYRIGTEHADKRRFRTSSWQSCAPIQSSNERQVLAELENCLSEHEGEYVRLLGIDTASRSRVFEALIQDPQGPVGSAKAAAAPVSSATPSSHSYTSNGSSSSDVAGQVRGLLAQGYRISAEVADKRRFQTSSWQSLPALSGQSEATVLPALESILQEHKGKYVRLIGIDPAARRRVAELLIQKP
notes: as for B1

Target: the molecule itself
Assay: SEC-MALS; 2 mg/ml protein; 50 mM Tris-HCl pH 8.0/150 mM KCl or 50 mM Tris-HCl pH 8.0/500 mM KCl/5 mM DTT; 25 °C; oligomeric state in solution

Stoichiometry N, 3:
B1
B2
B3
B4
B5
B6
B7
B8
B9
B10
